Test results published in patent publication US10202593B2, “Evolved sortases and uses thereof” (President and Fellows of Harvard College, priority 2013, dated 2019).
Where two headings read alike, the source gives them in different places.

Tests used:
Assay type in all cases: biochemical
[1] = system: LPETG (Abz-LPETGK(Dnp)-CONH2); test: In vitro sortase kinetics HPLC assay, LPETG substrate
Method: (§1) See below for details on sortase expression and purification, and on the synthesis of Abz-LPETGK(Dnp)-CONH2 (SEQ ID NO: 19). […] Reactions were initiated with the addition of enzyme and incubated at 22.5° C. for 3 to 20 minutes before quenching with 0.5 volumes of 1 M HCl. Five to ten nmol of peptide from the quenched reactions were injected onto an analytical reverse-phase Eclipse XDB-C18 HPLC column (4.6×150 mm, 5 μm, Agilent Technologies) and chromatographed using a gradient of 10 to 65% acetonitrile with 0.1% TFA in 0.1% aqueous TFA over 13 minutes. Retention times under these conditions for the Abz-LPETGK(Dnp)-CONH2 (SEQ ID NO: 19) substrate, the released GKDnp peptide, and the Abz-LPETGGG-COOH (SEQ ID NO: 20) product were 12.8, 10.4, and 9.1 min, respectively. To calculate the percent conversion, the ratio of the integrated areas of the Abz-LPETGGG-COOH (SEQ ID NO: 20) and Abz-LPETGK(Dnp)-CONH2 (SEQ ID NO: 19) peptide Abs220 peaks was compared to a standard curve generated by mixing the product and starting peptide in known ratios. To determine […] and Km, reaction rates were fit to the Michaelis-Menten equation using OriginPro 7.0 software. All kinetics values reported represent the average of at least three measurements. Percent conversion was also calculated by using the ratio of the integrated areas of the GK(Dnp)-CONH2 and Abz-LPETGK(Dnp)-CONH2 peptide Abs355 peaks were compared directly (Example 5). To determine kcat and Km, LPETG, reaction rates were fit to the Michaelis-Menten equation using Microsoft Excel using the Solver add-in. To determine Km,GGG and KH, reaction rates were fit to the modified Michaelis-Menten, for which KH is as defined when KH<<Km,GGG.
(§2) Assays to determine eSrtA, eSrtA(2A-9) and eSrtA(4S-9) specificity were performed by preparing 10 μM stocks of Abz-LXEXGK(Dnp) (SEQ ID NO: 75) peptides in 300 mM Tris pH 7.5, 150 mM NaCl, 5 mM CaCl2, 5% v/v DMSO, and 100 mM Gly-Gly-Gly-COOH (GGG). Reactions were performed by adding eSrtA(2A-9) to a final concentration of 450 nM, eSrtA(4S-9) to a final concentration of 115 nM or eSrtA to a final concentration of 47.5 nM and a final volume of 100 μL, then incubating at 22.5° C. for 15 minutes. Reactions were quenched by the addition of 0.2 volumes of 5 M HCl, then were injected onto an analytical reverse-phase Eclipse XDB-C18 HPLC column (4.6×150 mm, 5 μm, Agilent Technologies) and chromatographed using a gradient of 10 to 65% acetonitrile with 0.1% TFA in 0.1% aqueous TFA over 13 minutes. Retention times under these conditions for the Abz-LPETGK(Dnp)-CONH2 (SEQ ID NO: 19) substrate, the released GKDnp peptide, and the Abz-LPETGGG-COOH (SEQ ID NO: 20) product were 12.8, 10.4, and 9.1 min, respectively, while the remaining Abz-LXEXGK(Dnp)-CONH2 (SEQ ID NO: 74) substrates varied in retention time between 9 and 13 minutes. To calculate the percent conversion, the ratio of the integrated areas of the GK(Dnp)-CONH2 and Abz-LPETGK(Dnp)-CONH2 (SEQ ID NO: 19) peptide Abs355 peaks were compared directly. Subsequent determination of kcat/Km and KH were performed as described for in vitro SrtA characterization.
(§3) In each case, rate constants were determined by measuring enzyme velocity at eight different substrate concentrations by HPLC assay, then fit using nonlinear regression to the Michaelis-Menten equation, yielding kcat and Km. KH was calculated by measuring enzyme velocity at 1 mM target substrate and eight different GGG concentrations by HPLC assay, then fitting the resulting curves using nonlinear regression to the modified Michaelis-Menten equation.

[2] = system: LPESG (Abz-LPESGK(Dnp)-CONH2); test: In vitro sortase kinetics HPLC assay, LPESG substrate; conditions: reversion of V182
Method: as §1, §2, §3

[3] = system: LAETG (Abz-LAETGK(Dnp)-CONH2); test: In vitro sortase kinetics HPLC assay, LAETG substrate; conditions: for increase in kcat/Km for LAETG as compared to LPETG / increased affinity (KM) for the LAETG substrate as compared to the LPETG substrate: FIG. 1; for specificity (relative cat. Efficiency, fold): ratio of kcat/Km between 2A (LAETG) and wt (LPETG) substrates, favoured over disfavoured; for kcat, 1 mM LxExG (Hz) / kHydrolysis (Hz): GGG varied; for kHydrolysis (Hz): 1 mM
Method: as §1, §2, §3

[4] = substrate wt (LPETG), read-out: Km, LxExG
[5] = substrate 2A (LAETG), read-out: Km, LxExG
[6] = 1 mM 2A (LAETG) substrate, read-out: Km, GGG

Molecule | kcat, 10 mM GGG (Hz) ([1]; substrate wt (LPETG)) | Km [1, 4] [µM] | specificity (relative cat. Efficiency, fold) [3] [fold] | kcat, 10 mM GGG (Hz) ([3]; substrate 2A (LAETG)) | Km [3, 5] [µM] | Khydrolysis ([3]; 1 mM 2A (LAETG) substrate) [µM] | kcat, 1 mM LxExG (Hz) ([3]; 1 mM 2A (LAETG) substrate) | Km [3, 6] [µM] | kL/KL/KH ([3]; substrate 2A (LAETG)) | kHydrolysis (Hz) ([3]; substrate 2A (LAETG)) | further results
SrtA: wild-type Staphylococcus aureus sortase A (SEQ ID NO: 1) (protein, S. aureus) MKKWTNRLMTIAGVVLILVAAYLFAKPHIDNYLHDKDKDEKIEQYDKNVKEQASKDKKQQAKPQIPKDKSKVAGYIEIPDADIKEPVYPGPATPEQLNRGVSFAEENESLDDQNISIAGHTFIDRPNYQFTNLKAAKKGSMVYFKVGNETRKYKMTSIRDVKPTDVEVLDEQKGKDKQLTLITCDDYNEKTGVWEKRKIFVATEVK | 1.221 | 5180 | – | – | – | – | – | – | – | – | KH ([1]; 1 mM LPETG): 14.3 ± 0.8 µM; KN ([1]; 1 mM LPETG, eight GGG concentrations): 14.3 ± 0.8 µM; Km ([1]; 1 mM LPETG, read-out: Km,GGG): 211 ± 8 µM; Khydrolysis ([1]; 1 mM wt (LPETG) substrate): 28.38 µM; kcat, 1 mM LxExG (Hz) ([1]; 1 mM wt (LPETG) substrate, GGG varied): 0.1731 Hz; Km ([1]; 1 mM wt (LPETG) substrate, read-out: Km, GGG): 291 µM; KH,LPETG ([1]; LPETG substrate): 14.3 ± 0.8 µM; Kcat (Hz) ([1]; Sub LPETG, 100 mM GGG): 1.5 ± 0.2 Hz; Km ([1]; Sub LPETG, 100 mM GGG, read-out: Km): 7600 ± 500 µM; Rel. Activity ([1]; Sub LPETG, kcat/Km of the enzyme's preferred substrate relative to kcat/Km on this substrate): 1; Kcat (Hz) ([1]; Table 2, Sub LPETG): 1.5 ± 0.2 Hz; Km ([1]; Table 2, Sub LPETG, read-out: Km): 7600 ± 500 µM; kL/KL/KH ([1]; substrate wt (LPETG)): 8.30E+06; kHydrolysis (Hz) ([1]; substrate wt (LPETG), 1 mM, GGG varied): 0.01657 Hz
eSrtA(4S-9) V182I (protein) QAKPQIPKDKSKVAGYIEIPDADIKEPVYPGPATREQLDRGVCFVEENESLDDQNISITGHTAIDRPNYQFTNLRAAKKGSMVYLKVGNETRKYKMTSIRNVKPTAVEVLDEQKGKDKQLTLITCDDYNFETGVWETRKIFVATEVK | – | – | – | – | – | – | – | – | – | – | selectivity and overall activity [2]: preserved selectivity but decreased overall activity
eSrtA(2A-9) H104A (protein) QAKPQIPKDKSKVAGYIEIPDADIKEPVYPGPATREQLNRGVCFADENESLDDQNISIAGHTFIDRPNYQFTNLKAAKPGSMVYFKVGNETRIYKMTSIRKVHPNAVEVLDEQEGKDKQLTLVTCDDYNEETGVWESRKIFVATEVK | – | – | – | – | – | – | – | – | – | – | preference for LPETG over LAETG ([3]; ratio of kcat/KM): 60 fold
eSrtA(2A-9) V182I (protein) QAKPQIPKDKSKVAGYIEIPDADIKEPVYPGPATREQLNRGVCFHDENESLDDQNISIAGHTFIDRPNYQFTNLKAAKPGSMVYFKVGNETRIYKMTSIRKVHPNAVEVLDEQEGKDKQLTLITCDDYNEETGVWESRKIFVATEVK | – | – | – | – | – | – | – | – | – | – | preference for LAETG over LPETG ([3]; ratio of kcat/KM): 85 fold; activity level for LAETG ([3]; reversion of V182): lowers the activity level for LAETG
eSrtA(2A-4): 5mut + A104H K162R V168I I182V (protein) QAKPQIPKDKSKVAGYIEIPDADIKEPVYPGPATREQLNRGVSFHEENESLDDQNISIAGHTFIDRPNYQFTNLKAAKKGSMVYFKVGNETRKYKMTSIRNVRPTAVEILDEQKGKDKQLTLVTCDDYNEETGVWETRKIFVATEVK | 0.09356 | 11700 | 73.05 | 1.901 | 3250 | – | – | – | – | – | Avg kcat (Hz) ([1]; Example 5 variants, substrate wt (LPETG)): 0.0501 Hz; Km ([1]; Example 5 variants, substrate wt (LPETG), read-out: Avg KM): 5180 µM; Avg kcat (Hz) ([3]; Example 5 variants, substrate 2A (LAETG)): 1.988 Hz; Km ([3]; Example 5 variants, substrate 2A (LAETG), read-out: Avg KM): 3720 µM; increase in kcat/Km for LAETG as compared to LPETG [3]: ~40 fold; preference for LAETG over LPETG ([3]; ratio of kcat/KM): 73 fold; Specificity (relative catalytic efficiency, fold) ([3]; ratio of kcat/KM between 2A (LAETG) and wt (LPETG)): 55.11 fold
eSrtA(2A-5): 5mut + R99H A104H K138I K162R I182V (protein) QAKPQIPKDKSKVAGYIEIPDADIKEPVYPGPATREQLNHGVSFHEENESLDDQNISIAGHTFIDRPNYQFTNLKAAKIGSMVYFKVGNETRKYKMTSIRNVRPTAVEVLDEQKGKDKQLTLVTCDDYNEETGVWETRKIFVATEVK | 0.1375 | 4900 | 115.7 | 1.41 | 433 | 615.9 | 1.493 | 2810 | 5.29E+06 | 0.324 | increase in kcat/Km for LAETG as compared to LPETG [3]: ~125 fold; increased affinity (KM) for the LAETG substrate as compared to the LPETG substrate [3]: ~116 fold; KH ([3]; GGG concentration at which hydrolysis and transpeptidation rates are equal, unit not given): 731±235
2A.6B: 5mut + R99K A104H K138V D160K* K162R I182V (protein) QAKPQIPKDKSKVAGYIEIPDADIKEPVYPGPATREQLNKGVSFHEENESLDDQNISIAGHTFIDRPNYQFTNLKAAKVGSMVYFKVGNETRKYKMTSIRKVRPTAVEVLDEQKGKDKQLTLVTCDDYNEETGVWETRKIFVATEVK | – | – | – | 0.6977 | 310 | 12.49 | 0.5359 | 642 | 1.81E+08 | 0.01048 | –
2A.6C: 5mut + A104H K138P K152I D160K* K162R I182V (protein) QAKPQIPKDKSKVAGYIEIPDADIKEPVYPGPATREQLNRGVSFHEENESLDDQNISIAGHTFIDRPNYQFTNLKAAKPGSMVYFKVGNETRIYKMTSIRKVRPTAVEVLDEQKGKDKQLTLVTCDDYNEETGVWETRKIFVATEVK | 0.07676 | 1980 | 61.61 | 0.8129 | 343 | 12.49 | 0.5359 | 642 | 1.91E+08 | 0.01048 | increased affinity (KM) for the LAETG substrate as compared to the LPETG substrate [3]: ~61 fold
